{
  "source": "patent US10398755B2",
  "about": "“Clusterin pharmaceuticals and treatment methods using the same” (UNIVERSITY OF SOUTHERN CALIFORNIA, priority 2009, dated 2019)",
  "molecules": {"B1": {"name": "CLU: secreted disulfide-linked heterodimeric glycoprotein (70-80 KD); assays used recombinant mouse CLU with C-terminal (His)6 (protein, UniProt Q06890 22-448, looked up)", "Clusterin": "EQEVSDNELQELSTQGSRYINKEIQNAVQGVKHIKTLIEKTNAERKSLLNSLEEAKKKKEDALEDTRDSEMKLKAFPEVCNETMMALWEECKPCLKHTCMKFYARVCRSGSGLVGQQLEEFLNQSSPFYFWMNGDRIDSLLESDRQQSQVLDAMQDSFARASGIIDTLFQDRFFARELHDPHYFSPIGFPHKRPHFLYPKSRLVRSLMSPSHYGPPSFHNMFQPFFEMIHQAQQAMDVQLHSPAFQFPDVDFLREGEDDRTVCKEIRRNSTGCLKMKGQCEKCQEILSVDCSTNNPAQANLRQELNDSLQVAERLTEQYKELLQSFQSKMLNTSSLLEQLNDQFNWVSQLANLTQGEDKYYLRVSTVTTHSSDSEVPSRVTEVVVKLFDSDPITVVLPEEVSKDNPKFMDTVAEKALQEYRRKSRAE", "modifications": "C-terminal His6 tag"}},
  "key": {"HA-tagged MMP-9": {"target": "T1, HA-tagged MMP-9 (Mus musculus, UniProt P41245)", "T1 construct": "carrying the mouse full length cDNA of Myc-tagged CLU (CLU) or HA-tagged MMP-9 (MMP-9) were transfected; expressed in transfected cells; host or cells: HEK293", "T1 sequence (P41245 108-730)": "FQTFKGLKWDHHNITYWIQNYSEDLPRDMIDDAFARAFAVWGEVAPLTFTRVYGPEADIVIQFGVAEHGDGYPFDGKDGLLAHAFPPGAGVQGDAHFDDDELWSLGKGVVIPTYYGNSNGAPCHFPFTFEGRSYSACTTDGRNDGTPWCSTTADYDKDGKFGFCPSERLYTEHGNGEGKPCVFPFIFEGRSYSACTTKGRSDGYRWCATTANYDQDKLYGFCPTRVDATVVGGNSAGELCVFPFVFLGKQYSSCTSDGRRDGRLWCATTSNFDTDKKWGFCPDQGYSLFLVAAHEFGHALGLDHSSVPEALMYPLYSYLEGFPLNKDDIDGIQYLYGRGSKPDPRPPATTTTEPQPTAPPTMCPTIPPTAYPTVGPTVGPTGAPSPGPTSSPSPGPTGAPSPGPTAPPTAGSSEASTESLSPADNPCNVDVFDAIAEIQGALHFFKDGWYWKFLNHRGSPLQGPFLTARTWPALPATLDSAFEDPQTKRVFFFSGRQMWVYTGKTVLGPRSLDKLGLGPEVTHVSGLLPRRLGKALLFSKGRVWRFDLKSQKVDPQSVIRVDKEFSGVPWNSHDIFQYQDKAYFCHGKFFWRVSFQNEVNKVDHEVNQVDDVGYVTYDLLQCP", "test": "Immunoprecipitation assay in co-transfected HEK293 cells", "type": "cell-based", "description": "(A) pcDNA 3.1 (+) expression vectors carrying the mouse full length cDNA of Myc-tagged CLU (CLU) or HA-tagged MMP-9 (MMP-9) were transfected, alone (CLU or MMP-9) or combined (CLU+MMP-9), into HEK293 cells. Using the whole cell lysates of the transfected cells, immunoprecipitation (IP) with anti-HA antibody was performed to pull down MMP-9, and then the eluted samples were subjected to immunoblotting (denaturing 4-15% gradient SDS/PAGE gel) (IB) using anti-Myc antibody to detect CLU. The bands indicated by arrows are consistent to the forms of CLU undergoing intracellular processing. in, whole cell lysate used as input; IP, immunoprecipitated sample; Unc, Uncleaved CLU protein; β, β subunit of CLU. (B) Confocal microscopy of MMP-9 and CLU in HCLE cells. Nuclei were stained with DAPI, MMP-9 was detected by rhodamine-conjuated antibody, and CLU by FITC-conjugated antibody. In control, primary antibodies were omitted. The images were taken at 400× magnification. […]\nNext, we tested whether MMP-9/CLU interaction also occurs in vivo. […] We also recognized that a stronger band of ˜50 KDa, compared with the other two IP lanes, was detected in co-transfected IP lane, which might be a non-glycosylated full-length form of CLU. […]"}, "GST-MMP-9": {"test_system": "GST-MMP-9", "sequence (P41245 109-730 limits assumed)": "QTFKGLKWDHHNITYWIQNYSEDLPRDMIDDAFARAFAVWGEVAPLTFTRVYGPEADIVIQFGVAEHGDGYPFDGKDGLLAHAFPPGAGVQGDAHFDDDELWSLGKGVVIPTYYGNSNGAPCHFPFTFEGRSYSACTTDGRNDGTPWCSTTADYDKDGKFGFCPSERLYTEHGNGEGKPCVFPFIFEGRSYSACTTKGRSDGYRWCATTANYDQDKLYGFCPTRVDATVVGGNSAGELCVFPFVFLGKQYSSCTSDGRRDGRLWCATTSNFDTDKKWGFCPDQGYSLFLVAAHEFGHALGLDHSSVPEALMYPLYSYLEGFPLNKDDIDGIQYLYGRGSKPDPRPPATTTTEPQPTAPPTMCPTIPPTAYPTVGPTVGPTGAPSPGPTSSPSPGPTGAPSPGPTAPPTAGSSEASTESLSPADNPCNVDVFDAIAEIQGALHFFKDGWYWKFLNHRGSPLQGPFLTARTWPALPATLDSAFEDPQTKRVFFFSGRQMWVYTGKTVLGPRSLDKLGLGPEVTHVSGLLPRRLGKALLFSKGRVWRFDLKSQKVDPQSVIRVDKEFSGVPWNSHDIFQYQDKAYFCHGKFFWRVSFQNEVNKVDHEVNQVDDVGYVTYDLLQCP", "test": "GST pull-down assay with GST-tagged MMP-9", "type": "binding, mouse", "settings": "presence or absence of bacterial lysate", "description": "(A) GST-tagged MMP-9 was purified from the bacterial cells transformed by the expression vector, and immobilized to the anti-GST-beads to prepare MMP-9-GST beads. Purified CLU-HA was incubated with MMP-9-GST beads (M-GST) or GST-beads (GST) in the presence (+Lysate) or absence (−Lysate) of bacterial lysate, followed by washing the beads with binding buffer. Bound proteins were resolved on denaturing 8% SDS/PAGE gel for the immunoblotting with anti-HA antibody. CLU cDNA detected in the yeast two hybrid assay, which corresponds to the CLU coding sequence beginning at position 212 from the ATG site, was used to produce a protein band of approximately 40 KDa. (B) Gelatin (20 μg) and CLU (2 μg) were mixed and incubated in the presence or absence of active MMP-9, followed by denaturing 12% SDS/PAGE gel electrophoresis, which then was stained with Coomasie blue. Two subunits of CLU are designated as α and β.\nThe GST tagged MMP-9 constructs were generated by ligation of the pGB-MMP-9 EcoR I/Sal I inserts into the pGEX 4T vector (Amersham, Piscataway, N.J.). The pGEX 4T MMP-9 constructs were transformed into the E. Coli strain BL21(DE3) (Novagen, Gibbstown, N.J.) for expression. […]\nTo further confirm the interaction between MMP-9 and CLU that was detected by yeast two hybrid screening, we performed GST pull down assay using recombinant GST-tagged MMP-9 fusion protein. […]"}},
  "data": [
    {"molecule": "B1", "values": [
      {"measurement": "co-immunoprecipitation of Myc-tagged CLU with HA-tagged MMP-9", "setting": "HA-tagged MMP-9", "value": "interact in vivo even before processing of the proteins"},
      {"measurement": "interaction of HA-tagged CLU with GST-MMP-9", "setting": "GST-MMP-9", "value": "still interacted even in the presence of the bacterial lysate"}
    ]}
  ]
}
